In paper PMC9127804:

Target: N-terminal hexahistidine-tagged CrlT (Pseudomonas aeruginosa WK172)
Experiment: pull-down; NHis-CrlT and untagged CrlA co-produced from pET28b-His-crlTA in E. coli BL21; Ni-NTA resin, lysis buffer 50 mM potassium phosphate pH 8.0, 300 mM NaCl; Tricine-SDS-PAGE

untagged antitoxin CrlA (natural protein)
stoichiometry N: 1
